Changes are numbered by the printed parent chain.
Experiments:
human IL-11 = target: T1, human IL-11 (human, UniProt P20809 22-199); assay: cell-based or functional assay
T1 sequence: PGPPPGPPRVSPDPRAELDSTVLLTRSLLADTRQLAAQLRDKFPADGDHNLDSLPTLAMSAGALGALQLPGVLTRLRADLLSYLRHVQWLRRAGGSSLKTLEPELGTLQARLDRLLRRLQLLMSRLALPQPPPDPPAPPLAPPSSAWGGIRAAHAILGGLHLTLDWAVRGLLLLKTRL

murine IL-11 [1] = target: T2, murine IL-11 (mouse, UniProt P47873 22-199); assay: cell-based or functional assay
T2 sequence: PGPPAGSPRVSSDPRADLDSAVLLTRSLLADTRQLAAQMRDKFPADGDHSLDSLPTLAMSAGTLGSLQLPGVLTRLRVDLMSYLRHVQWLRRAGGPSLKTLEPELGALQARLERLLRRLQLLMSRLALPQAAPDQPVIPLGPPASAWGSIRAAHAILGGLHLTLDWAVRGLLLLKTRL

cynomolgus IL-11 = target: T3, cynomolgus IL-11 (cynomolgus, UniProt P20808 22-199); assay: cell-based or functional assay
T3 sequence: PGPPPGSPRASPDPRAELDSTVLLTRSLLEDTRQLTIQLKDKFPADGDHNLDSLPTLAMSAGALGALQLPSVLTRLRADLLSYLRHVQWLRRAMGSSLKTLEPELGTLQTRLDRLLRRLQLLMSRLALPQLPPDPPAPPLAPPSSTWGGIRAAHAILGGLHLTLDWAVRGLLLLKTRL

rat IL-11 = target: T4, rat IL-11 (rat, UniProt Q99MF5 22-199); assay: cell-based or functional assay
T4 sequence: T2 sequence with S50N, L84F, G94A, V137A, I138V

murine IL-11 [2] = target: T2, murine IL-11; assay: SPR (Biacore), 37 C, antibody captured via anti-Fc, IL-11 as analyte
Protocol: To assess the binding kinetics and affinity of anti-IL-11 bispecific antibodies as well as their species cross-reactivity profile, binding assays were conducted using surface plasmon resonance (SPR). […] Antibodies were captured either via anti-human Fc IgGs (“Human antibody capture kit”, Order No. BR100839, Cytiva) or via anti-mouse Fc IgGs (“Mouse antibody capture kit, Order No. BR100383, Cytiva) covalently amine coupled to a Series S CM5 sensor chip (Cytiva) depending on the isotype. The amine coupling was carried out according to the manufacturer's instructions using 1-ethyl-3-(3-dimethylaminopropyl) carbodiimide hydrochloride (EDC), N-hydroxysuccinimide (NHS) and ethanolamine HCl, pH 8.5 (“Amine Coupling Kit” BR-1000-50, Cytiva.). Human, mouse, cynomolgus or rat IL-11 was used as analyte at several dilutions within the concentration range from 0.05-200 nM. For binding assays with only one concentration 200 nM IL-11 was used. The sensor surface was regenerated with glycine pH 1.7 after each antigen injection. Obtained sensorgrams were double referenced (subtraction of reference flow cell signal and buffer injection) and were fitted to a 1:1 Langmuir binding model to derive kinetic data using the Biacore T200 Evaluation software or the Biacore Insight software.
If no value is reported, there was either no binding or very low binding and multiphasic binding behavior.

murine IL-11 [3] = target: T2, murine IL-11; assay: Tri-complex ELISA, mIL-11 + mIL-11Ra-Fc + mgp130-Fc, inhibition of complex formation

B1: TPP-29519 (antibody, mouse IgG1)
heavy: QVQLVESGGGVVQPGRSLRLSCAASGFTFSHYDMHWVRQAPGKGLEWVAVISYHGSVKFYADSVKGRFTISRDNSKNTLYLQMNSLRAEDTAVYYCARTPGFHFDYWGQGTLVTVSSAKTTPPSVYPLAPGSAAQTNSMVTLGCLVKGYFPEPVTVTWNSGSLSSGVHTFPAVLQSDLYTLSSSVTVPSSTWPSETVTCNVAHPASSTKVDKKIVPRDCGCKPCICTVPEVSSVFIFPPKPKDVLTITLTPKVTCVVVDISKDDPEVQFSWFVDDVEVHTAQTQPREEQFNSTFRSVSELPIMHQDWLNGKEFKCRVNSAAFPAPIEKTISKTKGRPKAPQVYTIPPPKEQMAKDKVSLTCMITDFFPEDITVEWQWNGQPAENYKNTQPIMDTDGSYFVYSKLNVQKSNWEAGNTFTCSVLHEGLHNHHTEKSLSHSPGK
light: QSVLTQPPSASGTPGQRVTISCSGSSSNIGSNYVSWYQQLPGTAPKLLIYYDDLRPSGVPDRFSGSKSGTSASLAISGLRSEDEADYYCSAWDDSLSGVVFGGGTKLTVLGQPKSSPSVTLFPPSSEELETNKATLVCTITDFYPGVVTVDWKVDGTPVTQGMETTQPSKQSNNKYMASSYLTLTARAWERHSSYSCQVTHEGHTVEKSLSRADCS
notes: mIgG1, Lambda
- Efficacy (%), Stat3 reporter gene assay (human IL-11): 100%
- IC50, Stat3 reporter gene assay (human IL-11): 1800 pM
- Efficacy (%), Stat3 reporter gene assay (murine IL-11 [1]): 101%
- IC50, Stat3 reporter gene assay (murine IL-11 [1]): 1200 pM
- Efficacy (%), Stat3 reporter gene assay (cynomolgus IL-11): 99.2%
- IC50, Stat3 reporter gene assay (cynomolgus IL-11): 890 pM
- Efficacy (%), Stat3 reporter gene assay (rat IL-11): 99.7%
- IC50, Stat3 reporter gene assay (rat IL-11): 1000 pM
- Kd (murine IL-11 [2]): 3.5 pM
- Efficacy (%) (murine IL-11 [3]): 81.3%
- IC50 (murine IL-11 [3]): 140 pM

— patent publication US20240317847A1 (Bayer, published 2024)
